Measured values taken from US20250066503A1, “CELL INJURY INDUCING THERAPEUTIC DRUG FOR USE IN CANCER THERAPY” (CHUGAI SEIYAKU KABUSHIKI KAISHA, priority 2016, published 2025).
Changes are numbered by the printed parent chain.

B1: H0610-G1dh/none-Hi-Kn010G3/L0269-k0 (antibody, V domains shown)
VH: QVQLVQSGAEVKKPGASVKVSCKASGYTFTDYEMHWIRQPPGQGLEWIGAIDGKTPDTAYSQKFKGRVTLTADKSTSTAYMELSSLTSEDTAVYYCTRFYSYTYWGQGTLVTVSS
VL: DIVMTQSPLSLPVTPGEPASISCRSSQSPVHSNRNTYIQWYQQKPGQAPRLLIYKVSNRFSGVPDRFSGSGSGTDFTLKISRVEAEDVGVYYCGQGTQVPYTFGQGTKLEIK
notes: one-arm
B2: GCH025-G1dh/none-Hi-Kn010G3/L0000-k0 (antibody, V domains shown)
VH: B1 VH with K19T, Q43E, K54E
VL: DIVMTQSPLSLPVTPGEPASISCRSSQSLVHSNRNTYLHWYQQKPGQAPRLLIYKVSNRFSGVPDRFSGSGSGTDFTLKISRVEAEDVGVYYCGQGTQVPYTFGQGTKLEIKR
notes: one-arm
B3: GCH029-G1dh/none-Hi-Kn010G3/L0000-k0 (antibody, V domains shown)
VH: B1 VH with T30E
VL: B2 VL
notes: one-arm
B4: GCH013-G1dh/none-Hi-Kn010G3/L0000-k0 (antibody, V domains shown)
VH: B1 VH with K19T, S61E
VL: B2 VL
notes: one-arm
B5: H0610-G1dh/none-Hi-Kn010G3/TR01L015-k0 (antibody, V domains shown)
VH: B1 VH
VL: B1 VL with I38L, Q39H, Q42L, A48S, R50Q
notes: one-arm
B6: GCH006-G1dh/none-Hi-Kn010G3/L0000-k0 (antibody, V domains shown)
VH: B1 VH with S61E
VL: B2 VL
notes: one-arm
B7: GCH023-G1dh/none-Hi-Kn010G3/L0000-k0 (antibody, V domains shown)
VH: B1 VH with Q43E, K54E
VL: B2 VL
notes: one-arm
B8: GCH022-G1dh/none-Hi-Kn010G3/L0000-k0 (antibody, V domains shown)
VH: B1 VH with K19T, K54E
VL: B2 VL
notes: one-arm
B9: H0610-G1dh/none-Hi-Kn010G3/TR01L005-k0 (antibody, V domains shown)
VH: B1 VH
VL: B1 VL with P29L, I38L, Q39H, Q42L, A48S, R50Q, L109V, K112E
notes: one-arm
B10: GCH012-G1dh/none-Hi-Kn010G3/L0000-k0 (antibody, V domains shown)
VH: B1 VH with Y60E, S61E
VL: B2 VL
notes: one-arm
B11: GCH015-G1dh/none-Hi-Kn010G3/L0000-k0 (antibody, V domains shown)
VH: B1 VH with S61E, Q62E, K63S
VL: B2 VL
notes: one-arm
B12: GCH016-G1dh/none-Hi-Kn010G3/L0000-k0 (antibody, V domains shown)
VH: B1 VH with S61E, K65Q, G66D
VL: B2 VL
notes: one-arm
B13: GCH032-G1dh/none-Hi-Kn010G3/L0000-k0 (antibody, V domains shown)
VH: B1 VH with Q62E
VL: B2 VL
notes: one-arm
B14: H0610-G1dh/none-Hi-Kn010G3/TR01L008-k0 (antibody, V domains shown)
VH: B1 VH
VL: B1 VL with R24Q, S25A, Q27E, P29L, I38L, Q39H, S61R
notes: one-arm
B15: H0610-G1dh/none-Hi-Kn010G3/TR01L016-k0 (antibody, V domains shown)
VH: B1 VH
VL: B1 VL with I38L, Q39H, Q42L, A48S, R50Q, G94Y
notes: one-arm
B16: H0610-G1dh/none-Hi-Kn010G3/TR01L012-k0 (antibody, V domains shown)
VH: B1 VH
VL: B1 VL with P29L, I38L, Q39H, Q42L, A48S, R50Q, S61R, L109V, K112E
notes: one-arm
B17: H0610-G1dh/none-Hi-Kn010G3/TR01L003-k0 (antibody, V domains shown)
VH: B1 VH
VL: B1 VL with P29L, I38L, Q39H, L109V, K112E
notes: one-arm
B18: GCH008-G1dh/none-Hi-Kn010G3/L0000-k0 (antibody, V domains shown)
VH: B1 VH with K54E
VL: B2 VL
notes: one-arm
B19: GCH025-G1dh/none-Hi-Kn010G3/L0204-k0 (antibody, V domains shown)
VH: B1 VH with K19T, Q43E, K54E
VL: B2 VL with L29P, S61R
notes: one-arm
B20: GCH007-G1dh/none-Hi-Kn010G3/L0000-k0 (antibody, V domains shown)
VH: B1 VH with Q62D
VL: B2 VL
notes: one-arm
B21: GCH019-G1dh/none-Hi-Kn010G3/L0000-k0 (antibody, V domains shown)
VH: B1 VH with K19T, Q43E, S61E
VL: B2 VL
notes: one-arm
B22: GCH003-G1dh/none-Hi-Kn010G3/L0000-k0 (antibody, V domains shown)
VH: B1 VH with K54D
VL: B2 VL
notes: one-arm
B23: GCH010-G1dh/none-Hi-Kn010G3/L0000-k0 (antibody, V domains shown)
VH: B1 VH with K54D, S61E
VL: B2 VL
notes: one-arm
B24: H0610-G1dh/none-Hi-Kn010G3/TR01L010-k0 (antibody, V domains shown)
VH: B1 VH
VL: B1 VL with P29L, I38L, Q39H, S61R, L109V, K112E
notes: one-arm
B25: H0610-G1dh/none-Hi-Kn010G3/TR01L019-k0 (antibody, V domains shown)
VH: B1 VH
VL: B1 VL with R24Q, S25A, Q27E, I38L, Q39H, Q42L, A48S, R50Q, G94Y
notes: one-arm
B26: H0610-G1dh/none-Hi-Kn010G3/TR01L018-k0 (antibody, V domains shown)
VH: B1 VH
VL: B1 VL with R24Q, S25A, Q27E, I38L, Q39H, Q42L, A48S, R50Q
notes: one-arm
B27: H0610-G1dh/none-Hi-Kn010G3/TR01L017-k0 (antibody, V domains shown)
VH: B1 VH
VL: B1 VL with Q42L, A48S, R50Q, G94Y
notes: one-arm
B28: H0610-G1dh/none-Hi-Kn010G3/TR01L009-k0 (antibody, V domains shown)
VH: B1 VH
VL: B1 VL with P29L, I38L, Q39H, Q42L, A48S, R50Q, S61R
notes: one-arm
B29: H0610-G1dh/none-Hi-Kn010G3/TR01L011-k0 (antibody, V domains shown)
VH: B1 VH
VL: B1 VL with R24Q, S25A, Q27E, P29L, I38L, Q39H, S61R, L109V, K112E
notes: one-arm
B30: GCH005-G1dh/none-Hi-Kn010G3/L0000-k0 (antibody, V domains shown)
VH: B1 VH with Y60E
VL: B2 VL
notes: one-arm
B31: GCH027-G1dh/none-Hi-Kn010G3/L0000-k0 (antibody, V domains shown)
VH: B1 VH with T28E
VL: B2 VL
notes: one-arm
B32: GCH014-G1dh/none-Hi-Kn010G3/L0000-k0 (antibody, V domains shown)
VH: B1 VH with Q43E, S61E
VL: B2 VL
notes: one-arm
B33: H0610-G1dh/none-Hi-Kn010G3/TR01L020-k0 (antibody, V domains shown)
VH: B1 VH
VL: B1 VL with R24Q, S25A, Q27E, Q42L, A48S, R50Q, G94Y
notes: one-arm
B34: GCH026-G1dh/none-Hi-Kn010G3/L0000-k0 (antibody, V domains shown)
VH: B1 VH with K54E, Q62E, K63S
VL: B2 VL
notes: one-arm

molecular target: T1, human GPC3 (human, UniProt P51654 25-563); assay: SPR
T1 construct: range 25-563; soluble analyte; also called soluble human GPC3; glypican 3
T1 sequence (P51654 25-563 limits assumed): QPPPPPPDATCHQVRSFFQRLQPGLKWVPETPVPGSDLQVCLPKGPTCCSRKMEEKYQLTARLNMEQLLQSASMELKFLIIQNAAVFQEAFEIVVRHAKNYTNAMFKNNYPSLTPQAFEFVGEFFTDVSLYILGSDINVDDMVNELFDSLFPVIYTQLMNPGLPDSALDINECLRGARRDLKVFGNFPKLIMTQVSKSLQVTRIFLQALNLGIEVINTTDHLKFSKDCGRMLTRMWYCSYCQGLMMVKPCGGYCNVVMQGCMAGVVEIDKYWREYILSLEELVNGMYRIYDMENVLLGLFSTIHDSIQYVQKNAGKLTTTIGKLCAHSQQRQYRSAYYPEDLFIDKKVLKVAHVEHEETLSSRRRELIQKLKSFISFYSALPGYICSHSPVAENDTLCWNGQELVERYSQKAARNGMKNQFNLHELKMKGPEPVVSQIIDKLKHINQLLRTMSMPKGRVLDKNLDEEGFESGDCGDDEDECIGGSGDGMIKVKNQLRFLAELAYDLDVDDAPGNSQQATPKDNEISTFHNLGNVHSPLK

| Kd [nM] | Binder |
| --- | --- |
| 0.459 | B1 |
| 5.05 | B2 |
| 5.01 | B3 |
| 4.44 | B4 |
| 2.16 | B5 |
| 4.06 | B6 |
| 4.94 | B7 |
| 4.92 | B8 |
| 5.37 | B9 |
| 5.4 | B10 |
| 4.14 | B11 |
| 4.59 | B12 |
| 5.74 | B13 |
| 3.48 | B14 |
| 1.08 | B15 |
| 4.25 | B16 |
| 5.08 | B17 |

| Kd [nM] | Binder |
| --- | --- |
| 5.55 | B18 |
| 0.67 | B19 |
| 4.93 | B20 |
| 4.36 | B21 |
| 5.2 | B22 |
| 4.12 | B23 |
| 2.92 | B24 |
| 1.15 | B25 |
| 2.17 | B26 |
| 0.00827 | B27 |
| 3.81 | B28 |
| 4.02 | B29 |
| 5.32 | B30 |
| 3.83 | B31 |
| 4.2 | B32 |
| 0.0224 | B33 |
| 5.17 | B34 |
